Test results: patent US5891661A, “Low temperature assay for active HCMV protease in dimeric form” (Merck & Co., Inc., priority 1997, dated 1999)

Key:
HCMV protease [1] = assay: Dependence of protease specific activity on temperature, enzyme and glycerol concentrations (dilution); assay type: biochemical, human cytomegalovirus
Method: Dependence of Protease Specific Activity on Enzyme and Glycerol Concentrations
Dilution of a concentrated solution of HCMV protease produces a time-dependent change in activity to a new, lower level. The rate and extent of the change in protease activity is a function of temperature. […] At temperatures above 20° C., the change in activity (t1/2 ≤30 min) upon enzyme dilution is such that an accurate assessment of activity requires a rapid assay (ca. 1 min).
The specific activity of the HCMV protease increases at higher enzyme and glycerol concentrations. […] It can be shifted back to the higher activity seen for 20% glycerol by addition of an equal volume of buffer containing 30% glycerol to produce a solution containing 20% glycerol, followed by further incubation. Thus, the dependence of HCMV protease activity on enzyme and glycerol concentrations is reversible.
The dependence of HCMV protease activity on enzyme concentration can be interpreted in terms of a monomer-dimer equilibrium wherein only the dimeric form of the enzyme is active.

HCMV protease [2] = assay: Analytical centrifugation, velocity sedimentation of HCMV protease; assay type: physicochemical, human cytomegalovirus; conditions: 20 mM (monomer equivalents), 20° C.
Text: Analytical Centrifugation
The quaternary state of the HCMV protease was characterized by sedimentation velocity measurements. […] An approximate solution of the Lamm equation fits directly to the data to obtain the sedimentation coefficient, S20,w, the diffusion coefficient, D20,w, and by use of the Svedberg relation, the molecular weight. For both samples good fits are found for a single sedimenting species. In the absence of glycerol the molecular weight obtained is 29.7 kDa which is close to the molecular weight of a monomeric HCMV protease. […] The increase in S20,w and the decrease D20,w shown in Table 1 are both consistent with the existence of a stable dimeric protease in 20% glycerol.
^α Samples were loaded at 20 mM (monomer equivalents) and
sedimentation was conducted at 20° C. Data shown in brackets are
the 95% confidence limits.

HCMV protease [3] = assay: Activity assay of eluted size exclusion peaks at 0° C.; assay type: biochemical, human cytomegalovirus
Method: Assignment of the early (55 kDa) and late (33 kDa) elution peaks in FIG. 1 as dimer and monomer, respectively, allows the estimation of a Kd for dimerization. […] The maximum fraction of dimeric protease extrapolated from FIG. 2 is 0.92. In separate experiments using protease at a loading concentration of 100 mM, the maximum fraction of dimeric protease is more than or equal to 0.95. […] The same analysis applied to enzyme pre-equilibrated in 10% glycerol produces a […]

HCMV protease [4] = assay: Kinetic assays of monomeric form; assay type: biochemical, human cytomegalovirus; conditions: ambient or higher temperatures
Method: For this reason, the activity of this protease has been erroneously believed to be very low. […] This physiochemical phenomenon is governed by thermodynamic principles. Due to the high activation energy required for dissociation, the HCMV protease can be "frozen" in its active, dimeric form at about 0° C., thus enabling sensitive detection of inhibitors of this enzyme. […] The existence of the HCMV protease has been reported, e.g., see Pinko, et al., J. Biol. Chem. 270, 23634 (1995). Assays for the catalytic activity of this enzyme have been described, albeit the reported kinetic parameters were substantially lower than those measured by applicants. […] This approach affords an assay for the activity of the protease at low concentration (≤20 nM), thus permitting detection of weak inhibitors or strong inhibitors at low concentration.

wild-type HCMV protease = assay: Stability of purified wild-type enzyme at pH 5.5 and return of activity at pH 7.5; assay type: physicochemical, human cytomegalovirus
Method: The wild-type HCMV protease was purified similarly. To avoid self-proteolysis, the protein obtained from the first anion exchange step was folded and dialyzed as above, but in the absence of glycerol. The sample was then acidified to pH 5.5 with MES, applied to a cation exchange column in 50 mM MES, 1 mM EDTA, 1 mM DTT, pH 5.5, and eluted with a sodium chloride gradient. […] Enzyme preparations were greater than 95% pure by SDS PAGE and gave the expected amino acid analysis. The N-terminal 5 residues of both enzymes were MTMDE, showing retention but defonnylation of the initial N-formyl methionine. Electrospray mass spectrometry indicated a single species within 10 a.m.u. of the expected mass. The concentrations of stock enzyme solutions were determined by quantitative amino acid analysis.

With “HCMV protease: N-terminal 256 amino acid protease domain of HCMV strain AD169, recombinantly expressed in E. coli” the “change in protease activity upon dilution” value (HCMV protease [1]; 0° C.) was “no significant change is observable for a period of hours”, the “time for active form of the enzyme to reach equilibrium after dilution” value (HCMV protease [1]; 10% and 20% glycerol samples) was at most 1.5 h and the “activity in 10% glycerol compared with 20% glycerol” value (HCMV protease [1]; 10% vs 20% glycerol (v/v)) was “lower than that incubated in 20% glycerol”. The “decrease in protease activity upon dilution” value (HCMV protease [1]; 37° C.) was “occurs within minutes”, the “specific activity as enzyme concentration is lowered” value (HCMV protease [1]; after dilution, incubations of 1.5 hr and 3.5 hr) was “tends toward zero as its concentration is lowered” and the “t1/2 of change in activity upon enzyme dilution” value (HCMV protease [1]; temperatures above 20° C.) was at most 30 min. The “diffusion coefficient D20,w” value (HCMV protease [2]; 0% glycerol) was 8.34 cm^2 10^7, the “sedimentation coefficient S20,w” value (HCMV protease [2]; 0% glycerol) was 2.78 S and the “diffusion coefficient D20,w” value (HCMV protease [2]; 20% glycerol (v/v)) was 6.57 cm^2 10^7. The “sedimentation coefficient S20,w” value (HCMV protease [2]; 20% glycerol (v/v)) was 3.59 S.
In the case of “dimer: early (55 kDa) elution peak of HCMV protease, dimeric form”, the “hydrolytic activity in eluted dimer peak” value (HCMV protease [3]) is reported as “more than 50 -fold of detectable levels”.
“monomer: late (33 kDa) elution peak of HCMV protease, monomeric form” was tested, and the “activity of monomeric form as gauged by kinetic assays” value (HCMV protease [4]) was “inactive” and the “activity in eluted monomer peak” value (HCMV protease [3]) was “no detectable activity”.
For “wild-type HCMV protease: recombinant wild-type HCMV protease”, the “return of activity following dilution” value (wild-type HCMV protease; dilution from pH 5.5 to pH 7.5) was “returned to full activity” and the “stability of wild-type enzyme” value (wild-type HCMV protease; pH 5.5) was “stable at pH 5.5”.
